# Reference: paper PMC12510028, “A biophysical and molecular characterization of the interaction between the Alzheimer risk factor BIN1 and the neuronal scaffold protein p140Cap” (The Journal of Biological Chemistry, 2025)
# T1: BIN1 SH3 domain (Homo sapiens, UniProt O00499)
# T1 construct: His (N); made in house; host or cells: E. coli BL21 (DE3)
# T1 sequence (O00499 520-593 limits assumed): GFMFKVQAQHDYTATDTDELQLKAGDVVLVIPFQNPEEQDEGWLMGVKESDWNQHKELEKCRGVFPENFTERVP
# T2: Avi-tagged BIN1 SH3 domain (human, UniProt O00499 520-593, biotin within the 15 amino acid AviTag peptide (enzymatic, in E. coli))
# T2 chain: T1 sequence (O00499 520-593 limits assumed)
# T3: Avi-tagged BIN1 SH3 domain (human, UniProt O00499 520-593, biotin within the 15 amino acid AviTag peptide (enzymatic, in E. coli))
# T3 construct: human BIN1 (bridging integrator 1), the C-terminal 81 amino acids that encompass the SH3 domain; 12 kDa by the methods; vector pAviBir, insert between BamHI and NotI; also called Avi-BSH3; AviBir-Bin1 SH3; source: E. coli BL21 (DE3), purified (HisTrap HP, Sephacryl S-200 gel filtration); not shown: AviTag, N-terminal, kept
# T3 sequence (looked up): T1 sequence (O00499 520-593 limits assumed)
# B1: p140Cap from mouse brain (natural protein)
# chain: MQPWQCLRRFALAWWERTAEGRARSPREEVGPRDPGGRGEPDPERSSPPMLSADDAEYPREYRTLGGGGGGGSGGRRFSNVGLVHTSERRHTVIAAQSLEALSGLQKADADRKRDAFMDHLKSKYPQHALALRGQQDRMREQVGGWTVDPVCLLSSLCSHLHGDSTPSGAGQPAQQPNYWSFKTRSSRHTQGAQPGLADQAAKLSYASAESLETMSEAELPLGFSRMNRFRQSLPLSRSASQTKLRSPGVLFLQFGEETRRVHITHEVSSLDTLHALIAHMFPQKLTMGMLKSPNTAILIKDEARNVFYELEDVRDIQDRSIIKIYRKEPLYAAFPGSHLTNGDLRREMVYASRESSPTRRLNNLSPASHLASSSPPPGLPSGLPSGLPSGSPSRSRLSYAGGRPPSYAGSPVHHAAERLGGAPTGQGVSPSPSAILERRDVKPDEDLAGKAGGMVLVKGEGLYADPYGLLHEGRLSLAAAAETHSHTRARAACTSGVPCALSAPTPLPRCSPTWRTRCTRRALAALYGDGYGFRLPPSSPQKLADVSAPSGGPPPPHSPYSGPPSRGSPVRQSFRKDSGSSSVFAESPGGKARSTGSASTAGAPPSELFPGPGERSLVGFGPPVPAKDTETRERMEAMEKQIASLTGLVQSALLRGSEPETPSEKVEGSNGAATPSAPVCGSGSKSSGATPVSGPPPPSASSTPAGQPTAVSRLQMQLHLRGLQNSASDLRGQLQQLRNVQLQNQESVRALLKPTEADVSMRVSEAARRQEDPLQRQRTLVEEERLRYLNDEELITQQLNDLEKSVEKIQRDVAHNHRLMPGPELEEKALVLKQLGETLTELKAHFPGLQSKMRVVLRVEVEAVKFLKEEPQRLDGLLKRCRGVTDTLAQIRRQVDEGMWPPPNNLLNQSPKKVAAETDFSKGLDFEIPPPSPPLNLHELSGPAEGTPLTPKSTNPTKCLDASSKRNTDKAVSVEAAERDWEEKRAALTQYSAKDINRLLEETQAELLKAIPDLDCASKTHPGPAPTPDHKPPKAPHGQKAAPRTEPSGRRGSDELTVPRYRTEKPSKSPPPPPPRRSFPSSHGLTTTRTGEVVVTSKKDSVFIKKAESEELEVQKPQVKLRRAVSEVVRPASTPPIMASAIKDEDDEERIIAELESGGSSVPPMKVVTPGASRLKAAQGPAGSPDKGKHGKQRTEYMRIQAQQQATKPSKEVSGPNETSSPGSEKPSGSRTSIPVLTSFGARNSSISF
# B2: tau 6-mer peptide 158-163 (peptide)
# peptide: PTPPTR
# notes: tau, proline-rich domain, minimum consensus class II PRM; The methods tell acetylation and amination of the ends only for the 14-residue peptides; also called tau_(158-163); 6-mer tau peptide; source: synthetic peptide
# B3: tau 13-mer peptide 154-166 (peptide)
# peptide: TPSLPTPPTREPK
# notes: tau, proline-rich domain, class II PRM extended at both ends; The methods tell acetylation and amination of the ends only for the 14-residue peptides; also called tau_(154-166); 13-mer tau peptide; source: synthetic peptide
# B4: p140Cap 14-mer peptide 1033-1046 (peptide)
# peptide: Ac-KPSKSPPPPPPRRS-NH2
# notes: also called p140Cap_(1033-1046); native 14-mer peptide; source: synthetic peptide (GenScript, reversed-phase HPLC, ≥95% purity)
# B5: p140Cap native class IIa 7-mer peptide (peptide)
# peptide: PPPPPRR
# notes: human p140Cap, class IIa PRM of the C-terminal proline-rich domain; source: synthetic peptide
# Assays:
# BIN1 SH3 domain = target: T1, BIN1 SH3 domain; test: SPR equilibrium affinity of peptides for biotinylated BIN1-SH3 domain; type: binding; conditions: for Kd: SPR Biacore S200, Biotin CAPture chip, Avi-BIN1-SH3 immobilised as ligand, peptide as analyte, reference cell CTX-M-14 subtracted, 25 °C, PBS-P+, steady-state 1:1 fit, mean ± SD of three technical replicates, p140Cap peptides tested 0.6–75 μM; for binding to BIN1-SH3 in words: SPR, tested analyte concentrations 0.6–75 μM
# Description: We undertook a candidate approach to identify biologically relevant neuronal proteins that interact with BIN1’s SH3 domain (Fig. 1A). First, we referenced published KD calculations for several BIN1 SH3 domain ligands ([45]), setting a KD cut-off at <10 μM for our study. Then, we obtained a published index of potential protein interactors from a study that computationally predicted the top 100 peptide binding partners for each of 70 human SH3 domains, generated by SH3PepInt, an alignment-free, graph kernel-based tool ([46]). We curated the predicted BIN1 SH3-binding proteins using a set of criteria to ensure: 1) neuronal expression, 2) subcellular localization at the synapse, and 3) molecular functions relevant to neuronal BIN1 in neurotransmitter vesicle dynamics ([25]). We then utilized available protein structures in the Protein Data Bank or those predicted by AlphaFold to confirm the accessibility of each putative SH3-binding site within the full-length protein, prioritizing peptides known to adopt the left-handed polyproline-II helix. From these analyses, we nominated 10 proteins for an initial screening using 14-mer peptides in surface plasmon resonance (SPR) analysis (Fig. 1B). The purified Avi-tagged BIN1 SH3 domain was immobilized as the ligand on flow cell 2, while a nonbinding control protein was immobilized on flow cell 1 (Fig. S1). Subsequently, each peptide was injected in solution over the sensor surface as the analyte (Fig. 1B). To correct for nonspecific binding, response units from flow cell 1 were subtracted from those of flow cell 2 to determine the KD.
# The ^1033KPSKSPPPPPPRRS^1046 p140Cap peptide harbors three canonical PRMs: class I, ^1036KSPPPPP^1042; class IIa, ^1038PPPPPRR^1045; and class IIb, ^1037PPPPPPR^1044 (Fig. 2A). […] Thus, we used SPR in combination with alanine-scanning mutagenesis to determine which of the three class motifs on p140Cap mediates binding to BIN1’s SH3 domain. We synthesized 14-mer peptides with alanine substitutions at either the basic residues alone or in combination with the corresponding prolines for all three canonical PRM classes. We also synthesized 7-mer peptides containing the native core motif for cross-referencing (Fig. 2B). […] We reasoned that alanine substitution of residues not involved in BIN1-SH3 binding would produce similar, if not identical, KDs to the native 14-mer peptide. […] Thus, we would be able to identify the precise motif responsible for facilitating the BIN1–p140Cap interaction.
# All experiments were conducted using the Biacore S200 (GE Healthcare), equipped with a series S Biotin Capture chip (Cytiva Life Sciences) at 25 °C in 1X PBS-P + [0.2 M phosphate buffer with 27 mM KCl, 1.37 M NaCl, and 0.5% surfactant P20 (Tween 20)] running buffer. The chip surface was first conditioned with three 1-min injections of regeneration solution (3:1 8 M guanidine-HCl: 1 M NaOH) immediately after docking. Biotin CAPture reagent (50 μg/ml in HBS-EP buffer [0.01 M Hepes (pH 7.4), 0.15 M NaCl, 3 mM EDTA, 0.005% surfactant P20]), 3.4 ml) was immobilized on the chip surface at a flow rate of 2 μl/min for 5 min prior to ligand immobilization. Affinity run assays were conducted by immobilizing 50 μg/ml Avi-BSH3 (12 kDa, >90% pure based on SDS-PAGE) diluted in 1X PBS-P+ running buffer at 5 ul/min for 60 s on a streptavidin-coated matrix on flow cell 2. Additionally, 50 μg/ml Avi-tagged nonbinding protein (CTX-M-14 β-lactamase, 30 kDa, >90% pure based on SDS-PAGE) diluted in 1X PBS-P+ running buffer was immobilized at 5 μl/min for 60 s on flow cell 1 to serve as a reference surface for subtraction of bulk refractive index background. To collect affinity data, the analytes were diluted in running buffer and injected over the two flow cells in serial dilution at a flow rate of 30 μl/min. The complexes were allowed to associate and dissociate for 30 s and 300 s, respectively. The surfaces were then regenerated with three 60 s injections of regeneration solution. […]
# nsP3 (Chikungunya virus) = nsP3 (Chikungunya virus) (UniProt Q8JUX6); conditions: cited from earlier work
# [1] = target: Avi-tagged BIN1 SH3 domain (human) (UniProt O00499); test: SPR; Biacore S200, Biotin CAPture chip; biotinylated Avi-BIN1-SH3 captured on flow cell 2, Avi-tagged CTX-M-14 β-lactamase on reference flow cell 1; peptides injected as analytes at 30 μl/min; 25 °C, 1X PBS-P+; steady-state analysis, 1:1 model
# [2] = target: GST-tagged BIN1-SH3 domain MutK (K30R, rs138047593) (human); test: pull-down; 25 μg GST or GST-BSH3 (WT or mutant) on glutathione-Sepharose with 0.5 mg of 1% Triton X-100 soluble mouse brain homogenate, 2 h at room temperature; washes with 50 mM KCl, 150 mM NaCl, 1.5% IGEPAL; immunoblot for p140Cap and total tau
# [3] = target: T2, Avi-tagged BIN1 SH3 domain; test: SPR
# [4] = target: T3, Avi-tagged BIN1 SH3 domain; test: SPR; Biacore S200, Biotin CAPture chip; biotinylated Avi-BIN1-SH3 captured on flow cell 2, Avi-tagged CTX-M-14 β-lactamase on reference flow cell 1; peptides injected as analytes at 30 μl/min; 25 °C, 1X PBS-P+; steady-state analysis, 1:1 model; conditions: both partners purified
# [5] = target: T2, Avi-tagged BIN1 SH3 domain; test: SPR
molecule,measurement,setting,value
Ac-GYGFRLPPSSPQKL-NH2 [p140Cap498-512],Kd,BIN1 SH3 domain,> 75 µM
Ac-KPSKSPAPPAPARS-NH2 [KPSKSPAPPAPARS],Kd,BIN1 SH3 domain,> 75 µM
Ac-KPSKSPPAPPARAS-NH2 [KPSKSPPAPPARAS],Kd,BIN1 SH3 domain,> 75 µM
BIN1 SH3 (from UniProt O00499),Kd,nsP3 (Chikungunya virus),0.024 µM
p140Cap 14-mer peptide 1033-1046 with alanine substitution of the class I lysine and its corresponding prolines (from UniProt Q9C0H9 1033-1046),Kd,[1],21 µM
tau from mouse brain (from UniProt P10637-2 1-430) (natural protein),fold less bound than to WT BIN1-SH3,[2],2 fold
Ac-KSPPPPP-NH2 (N-terminus and C-terminus assumed) [KSPPPPP],binding to BIN1-SH3 in words,BIN1 SH3 domain,no binding within the range of tested analyte concentrations
p140Cap 14-mer peptide 1033-1046 with alanine substitution of the C-terminal arginine (class IIa) (from UniProt Q9C0H9 1033-1046),Kd,[1],26.3 µM
p140Cap 14-mer peptide 1033-1046 with alanine substitution of the class I lysine (from UniProt Q9C0H9 1033-1046),Kd,[1],6.32 µM
Ac-PPPPPPR-NH2 (N-terminus and C-terminus assumed) [PPPPPPR],binding to BIN1-SH3 in words,BIN1 SH3 domain,outside the range of tested analyte concentrations
Ac-ERSLVGFGPPVPAK-NH2 [p140Cap583-596],Kd,BIN1 SH3 domain,> 75 µM
PPPPPPR [p140Cap native class IIb 7-mer peptide],Kd,[3],> 75 µM
B1,fold less bound than to WT BIN1-SH3,[2],2.6 fold
B2,Kd,[4],288 µM
Ac-GYGFRLPPSSPQKL-NH2 [p140Cap 14-mer peptide 498-512],Kd,[5],> 75 µM
Ac-ERSLVGFGPPVPAK-NH2 [p140Cap 14-mer peptide 583-596],Kd,[5],> 75 µM
Ac-KPSKSPPAPPARAS-NH2,Kd,[4],> 75 µM
KSPPPPP [p140Cap native class I 7-mer peptide],Kd,[3],> 75 µM
B3,Kd,[4],484 µM
B4,Kd,[4],7.7 µM
B5,Kd,[4],31.7 µM
Ac-KPSKSPPPPPPARS-NH2 [p140Cap 14-mer peptide 1033-1046 with alanine substitution of the N-terminal arginine (class IIb)],Kd,[3],> 75 µM
